In paper PMC3582033 (Cell, 2011):

Assays:
[1] = molecular target: H3(1-28) with acetylated K18 (UniProt P68431 2-29, acetyl-lysine at K18); assay: ITC
[2] = molecular target: H3(1-28)K9me3K18ac histone peptide (UniProt P68431 2-29, trimethyl-lysine at K9; acetyl-lysine at K18); assay: ITC

B1: TRIM33 PHD-Bromo cassette (domain or fragment)
chain: DDDPNEDWCAVCQNGGDLLCCEKCPKVFHLTCHVPTLLSFPSGDWICTFCRDIGKPEVEYDCDNLQHSKKGKTAQGLSPVDQRKCERLLLYLYCHELSIEFQEPVPASIPNYYKIIKKPMDLSTVKKKLQKKHSQHYQIPDDFVADVRLIFKNCERFNEMMKVVQVYADTQEINLKADSEVAQAGKAVALYFEDKLTEIYSDRTFA
**Q.** With B1 as the binder, how does the “fold enhancement of binding over unmodified H3(1-28)” value [1] read?
**A.** 2.3 fold

**Q.** And the “fold enhancement of binding over unmodified H3(1-28)” value [2]?
**A.** 3.5 fold
